The target in test [1] is T1, Human CXCR2 (Homo sapiens, UniProt P25025).
T1 sequence (P25025 1-360): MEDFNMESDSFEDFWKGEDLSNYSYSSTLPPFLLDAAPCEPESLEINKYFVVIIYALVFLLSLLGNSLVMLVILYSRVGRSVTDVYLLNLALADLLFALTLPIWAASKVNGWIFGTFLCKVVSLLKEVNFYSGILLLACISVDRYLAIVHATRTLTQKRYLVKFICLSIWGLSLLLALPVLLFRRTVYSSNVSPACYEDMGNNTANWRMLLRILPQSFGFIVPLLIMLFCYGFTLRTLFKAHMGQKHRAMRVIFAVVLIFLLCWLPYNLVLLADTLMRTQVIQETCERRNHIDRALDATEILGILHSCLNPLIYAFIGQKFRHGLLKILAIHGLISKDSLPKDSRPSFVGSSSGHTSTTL
The experiment in a line: cELISA of hybridoma supernatants on cells transfected with human CXCR2. The class given is binding. Conditions: hybridoma supernatant; fluorescence units relative to positive control (100%). On the set-up: host or cells: Expi293F cells, vector pTT5. How it is done: To generate hybridomas which produced monoclonal antibodies to human CXCR2, splenocytes and/or lymph node cells from animals with the highest anti-CXCR2 titres were isolated and fused to mouse myeloma cells (ATCC, CRL-1580). Cells were plated at approximately 1×10^5 cells/mL in flat bottom microtiter plates, followed by a two week incubation in selective medium (10% FCS and 1×HAT (Sigma)). Hybridomas were expanded by serial passage through four media changes in 96-well plates (96-well stages 1 to 4), then, where required, expanded into T25 and T75 flasks. […] Bound antibodies were detected using a goat anti-rat IgG-HRP (Southern Biotech, #3030-05) secondary antibody.
A panel of hybridomas was generated using lymph nodes and spleen cells from the transgenic rats engineered to express human variable region sequences. A cellular ELISA (cELISA) was used to detect human CXCR2 binding activity in supernatants taken during the expansion process for the hybridomas (Table 5). Hybridomas that retained expression of antibodies that bound CXCR2 after several passages were selected for DNA sequencing.

The next test addresses T2, Murine CXCR2 (Mus musculus, UniProt P35343).
T2 construct: expressed in transfected cells
T2 sequence (P35343 1-359): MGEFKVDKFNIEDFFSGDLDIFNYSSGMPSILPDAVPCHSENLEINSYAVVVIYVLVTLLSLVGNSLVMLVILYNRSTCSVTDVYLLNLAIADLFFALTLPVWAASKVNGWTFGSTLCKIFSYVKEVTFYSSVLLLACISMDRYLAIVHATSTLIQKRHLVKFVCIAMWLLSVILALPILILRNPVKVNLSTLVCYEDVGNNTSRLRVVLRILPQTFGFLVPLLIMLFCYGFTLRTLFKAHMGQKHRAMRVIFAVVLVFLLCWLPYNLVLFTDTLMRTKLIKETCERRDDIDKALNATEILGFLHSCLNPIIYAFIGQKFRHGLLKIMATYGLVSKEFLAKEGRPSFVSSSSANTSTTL
The experiment in a line: cELISA of hybridoma supernatants on cells transfected with murine CXCR2. The class given is binding. Conditions: hybridoma supernatant; fluorescence units relative to positive control (100%).

Test [2] concerns the target T1, Human CXCR2. The test is described as follows: Tango CXCR2-bla U2OS cell-based β-arrestin recruitment assay. On the set-up: The beta-arrestin/TEV protease fusion and the beta-lactamase reporter are separate parts of the cell line. Conditions: CXCL1 or CXCL8 as agonist. An excerpt:
Cells were thawed, propagated, cultured and frozen according to the manufacturer's directions.
Preparation of Tango™ CXCR2-bla U2OS cells for use in cell-based assays: The manufacturer's protocol was altered to make use of 96-well plates instead of 384-well plates. Briefly, dividing cells were harvested one day prior to use. Cells were harvested and resuspended in assay medium (100% FreeStyle™ Expression Medium; Life Technologies; Cat #12338-018) at a viable cell density of 312,500 cells/mL. 128 μL of cell suspension was added per well in 96-well black-walled, clear bottom tissue culture-treated plates. Cells were incubated for 16-20 hrs at 37° C. in an atmosphere of 5% CO2 prior to use in assays.
Tango™ assay procedure: Assays were set up and run as described in the manufacturer's protocol. For antagonist assays, agonists were used at concentrations in the EC50-EC80 range. Assays were read using a FlexStation® 3 (Molecular Devices) fluorescence plate reader configured with the parameters given in Table 4. The blue/green emission ratio for each well was calculated by dividing the blue emission values by the green emission values. All inhibition curves were fitted using a four-parameter dose-response using GraphPad Prism™ (Version 7.01).
The Human CXCR2 Tango™ cell line was used to assess the ability of antibody BKO-4A8-101c to inhibit β-arrestin recruitment to agonist-activated CXCR2. All human ELR+ chemokine CXCR2 ligands were tested in antagonist dose response assays using calculated EC50 values of agonist.
The commercially available reporter cell line Tango™ CXCR2-bla U2OS (ThermoFisher Scientific) was used to assess the ability of the anti-CXCR2 antibodies to inhibit β-arrestin recruitment to agonist-activated CXCR2. Agonists were provided at their assay EC50 concentration for antagonist assays.

B1: BKO-10G10: VH SEQ ID NO: 51, VL SEQ ID NO: 52 (antibody, V domains shown)
VH: QLQLQESGPGLVKPSETLSLTCTVSGGSIRRSSYYWGWIRQPPGKGLEWIGSFYNSGNTYYKPSLKSRVAISVDTPKNQFSLKLSSVTAADTAVYYCARGYSSGGFDPWGQGTLVTVSS
VL: QSALTQPASVSGSPGQSITISCTGTSSDVGGYNYVSWCQQHPGKAPKIMIFDVSNRPSGVSNRFSGSKSGNTASLTISGLQAEDEADYYCSSYTSSSTWVFGGGTRLTVL
modifications: BKO_10G10_VH; BKO_10G10_VL
B1: in the test with Human CXCR2 [1], the “Human CXCR2 % Positive” value is 89%. In addition, the “Murine CXCR2 % Positive” value with Murine CXCR2 is listed as 4%.

B2: BKO-8H10: VH SEQ ID NO: 43, VL SEQ ID NO: 44 (antibody, V domains shown)
VH: QVQLVQSGAEVKKPGASVKVSCKASGYTFTGYYIHWVRQAPGQGLEWMGRIKPDSGGTNYAQKFQGRVTMTRDTSITTAYMELSRLRSDDTAVYYCARGGSGWDYWGQGTLVTVSS
VL: QSALTQPPSASGSPGQSVTISFTGTSRDVGDYNYVSWYQQHPGKAPKLMIYEVNKRPSGVPDRFSGSKSGNTASLTVSGLQAEDEADYYCSSYAGSNTYVFGTGTKVTVL
modifications: BKO_8H10_VH; BKO_8H10_VL
As for B2, in the test with Human CXCR2 [1], the “Human CXCR2 % Positive” value turned out to be 81%. Further, the “Murine CXCR2 % Positive” value with Murine CXCR2 was 8%.

B3: BKO-1B10: VH SEQ ID NO: 3, VL SEQ ID NO: 4 (antibody, V domains shown)
VH: QLQLQESGPGLVKPSETLSLTCTVSGGSIRTSSYYWGWIRQPPGKGLEYIGSIYYSGTTYYNPSLKSRVTMSVDTSKNQFSLKLSSVTAADTAVYYCARHGRVREVPPFDYWGQGTLVTVSS
VL: SSELTQDPAVSVALGQTVRITCQGDSLRYYYASWYQQKPGQAPVLVIYDENSRPSGIPDRFSGSSSGNTASLRITGTQAEDEADYYCNSRDTSGNHWAFGGGTKLTVL
modifications: BKO_1B10_VH; BKO_1B10_VL
Take B3: the “Human CXCR2 % Positive” value in the test with Human CXCR2 [1] is 75%. Moreover, the “Murine CXCR2 % Positive” value with Murine CXCR2 was 4%.

B4: 103c: VH SEQ ID NO: 163, VL SEQ ID NO: 110 (antibody, V domains shown)
VH: EVQLLESGGGLVQPGGSLRLSCAASGFTFSSSTQSWVRQPPGKGLEWVSAISGSGGSTYYADSVKGRFTISRDNSKNTLYLQMNSLRAEDTAVYYCAIQMGYWGQGILVTVSS
VL: QSALTQPPSASGSPGQSVTISCIGTSSDVGGYNYVSWYQQHPGKAPKLMIYEVSKRPSGVPDRFSGSKSGNTASLTVSGLQAEDEADYYCSSYAGSNNFGVFGGGTKLTVL
modifications: 4A8 VH Variant 103 M34Q_A40P_R53S_R55G_N56S_ R75K; 4A8 VL variant c D41G_N52S_N94S
With B4, in the test with Human CXCR2 [2], the “potency compared to the parental antibody” value is “reduced potency”.

B5: BKO-1D1: VH SEQ ID NO: 5, VL SEQ ID NO: 6 (antibody, V domains shown)
VH: EVQLLESGGGLVQPGGSLRLSCAASKLTFKNSAMSWVRQAPGKGLEWVSAITGSGGRTYYADSVKGRFTISRDNSKNTLYLQMNSLRAEDTAIYYCAIQMGYWGQGILVTVSS
VL: QSALTQPPSASGSPGQSVTISCTGTSSDVGGYNYVSWYQQHPGKAPKLMIYEVNKRPSGVPARFSGSKSGNTASLTVSGLQAEDEADYYCSSYAGSNNFGVFGGGTKLTVL
modifications: BKO_1D1_VH; BKO_1D1_VL
In the case of B5, the “Human CXCR2 % Positive” value in the test with Human CXCR2 [1] is 67%. Moreover, in the test with Murine CXCR2, the “Murine CXCR2 % Positive” value is on record as 7%.

B6: BKO-9A8: VH SEQ ID NO: 47, VL SEQ ID NO: 48 (antibody, V domains shown)
VH: EVQLLESGGGLVQTGGSLRLSCAASGFTFSSNTMSWVRQAPGKGLEWVSAISGSGGRTYYVDSVKGRFTISRDNSKNTLYLQMHSLRAEDTAVYYCAIQLGSWGQGILVTVSS
VL: QSALTQPPSASGSPGQSVTISCTGTSSDVGAYNYVSWYQQHPGKAPKLMIYEVTKRPSGVPDRFSGSKSGNTASLTVSGLQAEDEADYYCSSYAGNNNFGVFGGGTKLTVL
modifications: BKO_9A8_H3_F03_VH; BKO_9A8_L1_H02_VL
For B6, in the test with Human CXCR2 [1], the “Human CXCR2 % Positive” value came out at 124%. Further, in the test with Murine CXCR2, the “Murine CXCR2 % Positive” value is recorded as 8%.

B7: BKO-3F4: VH SEQ ID NO: 15, VL SEQ ID NO: 16 (antibody, V domains shown)
VH: EVQLLESGGGLVQPGGSLRLSCAASGLTFSSYAMSWVRQAPGKGLEWVSAISGSGGKIYYADSVKGRFTISRDNSKNTLYLQMNSLRAEDTAVYYCAIQVGYWGQGTLVTVSS
VL: QSALTQPPSASGSPGQSVTMSCTGTSSDVGGYNYVTWYQQHPGKAPKLMIYEVSKRPSGVPARFSGSKSGNTASLTVSGLQAEDEADYYCSSYAGPNNFGVFGGGTKLTVL
modifications: BKO_3F4_VH; BKO_3F4_L11_A11_VL
As to B7, the “Human CXCR2 % Positive” value with Human CXCR2 [1] is 86%. Also, in the test with Murine CXCR2, the “Murine CXCR2 % Positive” value was found to be 42%.

B8: 105c: VH SEQ ID NO: 165, VL SEQ ID NO: 110 (antibody, V domains shown)
VH: EVQLLESGGGLVQPGGSLRLSCAASGFTFSSSTQSWVRQPPGKGLEWVSAISGSGGSTYYADSVKGRFTISRDNSKNTLYLQMNSLRAEDTAVYYCAIQAGYWGQGILVTVSS
VL: QSALTQPPSASGSPGQSVTISCIGTSSDVGGYNYVSWYQQHPGKAPKLMIYEVSKRPSGVPDRFSGSKSGNTASLTVSGLQAEDEADYYCSSYAGSNNFGVFGGGTKLTVL
modifications: 4A8 VH Variant 105 M34Q_A40P_R53S_R55G_N56S_ R75K_M96A; 4A8 VL variant c D41G_N52S_N94S
As for B8, the “potency compared to the parental antibody” value with Human CXCR2 [2] was “reduced potency”.

B9: 104c: VH SEQ ID NO: 164, VL SEQ ID NO: 110 (antibody, V domains shown)
VH: EVQLLESGGGLVQPGGSLRLSCAASGFTFSSSTQSWVRQPPGKGLEWVSAISGSGGSTYYADSVKGRFTISRDNSKNTLYLQMNSLRAEDTAVYYCAIQKGYWGQGILVTVSS
VL: QSALTQPPSASGSPGQSVTISCIGTSSDVGGYNYVSWYQQHPGKAPKLMIYEVSKRPSGVPDRFSGSKSGNTASLTVSGLQAEDEADYYCSSYAGSNNFGVFGGGTKLTVL
modifications: 4A8 VH Variant 104 M34Q_A40P_R53S_R55G_N56S_ R75K_M96K; 4A8 VL variant c D41G_N52S_N94S
As for B9, the “potency compared to the parental antibody” value with Human CXCR2 [2] is given as “reduced potency”.

B10: BKO-2D8: VH SEQ ID NO: 9, VL SEQ ID NO: 10 (antibody, V domains shown)
VH: EVQLLESGGGLVQPGGSLRLSCAASGYTFTSSTMSWVRQAPGKGLEWVTAISGRGGRTYYADSVKGRFTISRDNSKNTLYLQMNSLRAEDTAVYYCAIQLGNWGQGILVTVSS
VL: QSALTQPPSASGSPGQSVTISCTGTSSDIGGYNYVSWYQQHPGKAPKLVIYEVNMRPSGVPARFSGSKSGNTASLTVSGLQAEDEADYYCSSYAGNDNFGVFGGGTKLSVL
modifications: BKO_2D8_VH; BKO_2D8_VL
Regarding B10, the “Human CXCR2 % Positive” value in the test with Human CXCR2 [1] is on record as 100%. Besides, the “Murine CXCR2 % Positive” value in the test with Murine CXCR2 amounted to 7%.

(Values after patent US12018084B2, “Anti-CXCR2 antibodies and uses thereof” (Cephalon LLC, priority 2018, dated 2024).)
